Reference: patent US20230241072A1, “ANTHRACYCLINE DERIVATIVES” (ALMAC DISCOVERY LIMITED, priority 2019, published 2023)

B1: P3A1hFc-PEG4-vc-PAB-EDA-PNU (Fc fusion, not shown: a dimerising Fc or GST)
chain: TRVDQTPRTATKETGESLTINCVLTDTSYGLYSTSWFRKNPGTTDWERMSIGGRYVESVNKGAKSFSLRIKDLTVADSATYYCKAREARHPWLRQWYDGAGTVLTVNGGGGSGGGGSGGGGS
modifications: MA-PEG4-vc-PAB-EDA-PNU159682 on Cys 239 (EU) of the Fc
B2: P3A1hFc(442)-PEG4-va-EDA-PNU (Fc fusion, not shown: a dimerising Fc or GST)
chain: B1 chain
modifications: MA-PEG4-va-EDA-PNU159682 on Cys 442 (EU) of the Fc
B3: P3A1hFc-PEG4-va-EDA-PNU (Fc fusion, not shown: a dimerising Fc or GST)
chain: B1 chain
modifications: MA-PEG4-va-EDA-PNU159682 on Cys 239 (EU) of the Fc

Biological target: ROR1 on the surface of human cancer cells (human) (UniProt Q01973)
Experiment: cell-based or functional assay

Row | Binder | IC50 (nM) 96 h, cell viability (Cell Titre Glo), 697 cells [nM] | IC50 (nM) 96 h, cell viability (Cell Titre Glo), Kasumi-2 cells [nM] | IC50 (nM) 96 h, cell viability (Cell Titre Glo), MHH-ES1 cells [nM] | IC50 (nM) 96 h, cell viability (Cell Titre Glo), PA-1 cells [nM] | ROR1 targeting/2V non-targeting window, 697 cells [fold] | ROR1 targeting/2V non-targeting window, Kasumi-2 cells [fold] | ROR1 targeting/2V non-targeting window, MHH-ES1 cells [fold] | ROR1 targeting/2V non-targeting window, PA-1 cells [fold]
1 | B1 | 52 | 3.2 | 24 | 0.1 | 1.2 | 18 | 1.1 | 73
2 | B2 |  | 9.1 | 37.5 | 0.025 |  |  |  | 
3 | B3 | 61 | 2.3 | 18 | 0.15 | 4 | 43 | 8.4 | 360
